From patent US7135295 come the findings set out here.

The target in this test is biotinylated DNP-Ab (anti-DNP antibody modified with biotinamidocaproate N-hydroxysuccinimide ester). The test can be described thus: quartz crystal microbalance; avidin injected onto biotinylated DNP-Ab held on the dinitrosalicylic acid antigen monolayer.

Substance avidin (from UniProt P02701 25-152) showed a crystal frequency change Δf of -120 Hz.
